Patent US20170052184A1
Read-outs that look alike come from different tables or passages of the source.

How the values were obtained:
[1] = target: bovine serum albumin (bovine) (UniProt P02769); experiment: EIA, BSA control
[2] = target: bovine serum albumin (BSA) (bovine) (UniProt P02769); experiment: EIA, BSA background
[3] = target: bovine serum albumin (BSA) (bovine) (UniProt P02769); experiment: EIA, BSA background; remark: listed apart in the source
HCV Core1-169 (HCV-1) [4] = target: HCV Core1-169 (HCV-1) (UniProt P26664); experiment: EIA, core1-169 coated on plate
HCV Core1-169 (HCV-1) [5] = target: HCV Core1-169 (HCV-1) (UniProt P26664); experiment: EIA, core1-169 captured by mAb 14-153-229
[6] = target: T1, HCV bt-141-161 (Peptide 2, HCVc 141-161) (Hepatitis C virus (numbering per HCV-1)); experiment: EIA, captured mAb + biotin peptide
T1 sequence (peptide, biotin (carboxy-terminal per [p-0227]; N-terminal per [p-0050])): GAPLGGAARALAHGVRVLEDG

Chain of bovine serum albumin (BSA) (bovine) (P02769 25-607 limits assumed): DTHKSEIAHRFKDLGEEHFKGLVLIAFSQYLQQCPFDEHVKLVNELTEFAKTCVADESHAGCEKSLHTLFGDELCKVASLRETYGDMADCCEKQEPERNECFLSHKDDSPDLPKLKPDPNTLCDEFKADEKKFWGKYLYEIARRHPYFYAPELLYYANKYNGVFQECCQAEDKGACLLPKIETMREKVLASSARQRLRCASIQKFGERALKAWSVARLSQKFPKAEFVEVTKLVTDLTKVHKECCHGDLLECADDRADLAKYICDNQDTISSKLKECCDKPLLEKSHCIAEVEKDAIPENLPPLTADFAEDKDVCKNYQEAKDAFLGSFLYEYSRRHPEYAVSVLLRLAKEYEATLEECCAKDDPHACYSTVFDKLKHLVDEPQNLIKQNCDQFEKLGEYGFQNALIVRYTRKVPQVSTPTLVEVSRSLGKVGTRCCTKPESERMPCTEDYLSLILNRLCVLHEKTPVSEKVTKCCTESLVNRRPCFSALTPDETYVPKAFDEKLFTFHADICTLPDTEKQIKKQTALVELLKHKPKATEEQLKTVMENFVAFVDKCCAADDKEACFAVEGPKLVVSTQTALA
Chain of bovine serum albumin (bovine) (P02769 25-607 limits assumed): as above

Row | Binder | Reactivity (OD 492 nm) [1] [OD units] | OD (A492) [2] [OD] | OD (A492) [3] [OD] | OD (A492) (HCV Core1-169 (HCV-1) [4]) [OD] | OD (A492) (HCV Core1-169 (HCV-1) [5]) [OD] | Reactivity (OD 492 nm) [6] [OD units]
1 | HCV 208B-793 (antibody, V domains shown) VH: EVKLVESGGGLVQPGGSLKLSCAASGFTFSSYAMSWVRQTPERRLEWVTYISNGGGSTYYSDTVKGRFTFSRDNAKNTLYLQMSSLKSEDTAMYYCARHGLGRTGFASWGQGTLVTVSA VL: DIVMTQSHKFMSTSVGDRVSITCKASQDVGTAVAWYQQKPGQSPKLLIYWASTRHTGVPDRFTGSGSGTDFTLTISNVQSEDLADYFCQQYSNYLTFGAGTKLEVKR | 0.13 | 0.42 | 0.2 |  |  | 
2 | HCV 208B-517 (antibody, V domains shown) VH: QVQLKQSGPGLVQPSQSLSITCTVSGFSLITHGVHWVRQSPGKGLEWLGVIWSGGSTDYNAAFISRLSISKDTSKSQVFLKMSSLQADDTAIYYCARNGGATAFDYWGQGTTLTVSS VL: DIVMTQSPATLSVTPGDRVSLSCRASQSISDYLHWYQQKSHESPRLLIKYASQSISGIPSRFRGSGSGSHFTLSINSVEPEDVGVYYCQNGHSFPWTFGGGTKLEIKR | 0.11 | 0.07 | 0.12 |  |  | 
3 | HCV 208B-822 (antibody, V domains shown) VH: QVQLKQSGPGLVQPSQSLSITCTVSGFSLITYGVHWVRQSPGKGLEWLGVIWGGGSTGYNAAFVSRLNITKDNSKSQVFFKMNSLQPDDTAIYYCARNGGATVFDYWGQGTTLTVSS VL: DIVMTQSPATLSVTPGDRVSLSCRASQTISDYLHWYQQKSHESPRLLIKYASQSISGIPSRFSGSGSGSHFTLSINSVEPEDVGVYYCQNGHSFPWTFGGGTKLEIKR | 0.05 | 0.06 | 0.11 |  |  | 
4 | HCV 208A-210 (antibody, V domains shown) VH: QVQLQQSGPELVKPGASMRISCKASGYTFTSYYVHWIKQRPGQGLEWIGCIYPGDVNTDYNEKFKGKATLTADKSSSTAYMQVSTLTSEDSAIYFCVLYYYGSFAYWGQGTLVTVSA VL: EIVLTQSPAITAASLGQNVTITCRASSSVSYMHWYRQKSGTSPQLWIYEISRRASGVPARFRASGSGTSYSLTISSMEAEDAAIYYCQQWNYPLTFGAGTKLEVKR | 0.06 | 0.06 | 0.08 |  |  | 
5 | HCV 208A-874 (antibody, V domains shown) VH: QVQLQQPGAELVKPGASVKLSCKASGYTLSSYWMHWVKQRPGQGLEWIGEIHPSDSYTSYNQKFKDKATLTVDKSSSTAYMQLSSLTSEDSAVYYCARGGYYRYDEFAYWGQGTLVTVSA VL: DIVMTQSHKFMSTSIGDRVSITCKASQNVSPAVAWYQQKPGQSPKLLIYSASSRYTGVPDRFTGSGSGTAFTFTISSVQAEDLAVYFCQQHFSTPWTFGGGTMLEIKR | 0.05 | 0.06 | 0.1 | 0.45 | 0.18 | 
6 | HCV 208A-442 (antibody, V domains shown) VH: DVQLQESGPGLVNPSQSLSLTCSVTGYSITSGYYWIWIRQFPGNKLEWMGYIKYDGGNNYSPSLKNRISIARDTSKNQFFLKLNSVTIEDTATYYCTRGSDSFDYWGQGTTLTVSS VL: DIVLTQSPASLAVSLGQRAIISCKASQSVSFAGTNLMHWYQQKPGQQPKLLIYRASNLETGVPTRFSGSGSRTDFTLNIHPVEEDDAATYYCQQSREYYTFGGGTKLEIKR | 0.06 | 0.06 | 0.14 |  |  | 
7 | HCV 208A-422 (antibody, V domains shown) VH: DVQLQESGPGLVNPSQSLSLTCSVTGYSITSGYYWIWIQQSPGNKLEWMGYIKYDGGNNYSPSLKNRISIARDTSKNQCFLKLNSVTIEDTATYYCTRGSDSFDYWGQGTTLTVSS VL: DIVLTQSPASLAVSLGQRAIISCKASQSVSFAGTNLMHWYQQKPGQQPKLLIYRASNLETGVPTRFSGSGSRTDFTLNIHPVEEDDAATYYCQQSREYYTFGGGTKLEIKR | 0.07 | 1.1 | 0.11 | 1.68 | 0.18 | 
8 | HCV 208A-126 (antibody, V domains shown) VH: QLQQSGPVLVKPGASVMISCKTSGYTFTENAMHWVKQSHGKSLEWIGGVNPNNGDTIFNQKFKGKATLTVDKSSNTAFTELRSLPSEESTVYYCVRRGLDFFDYWGQGTSVTVSS VL: DIVLTQSPASLAVSLGQRATISCRASQSVSTSRYSYMHWYQQKPGQPPKLLIKYASNLESGVPARFSGSGSGTDFTLNIHPVAEEDTAAYYCQHSWEFPFTFGSGTKLEIKR | 0.1 | 0.24 | 0.07 |  |  | 
9 | HCV 208B-826 (antibody, V domains shown) VH: DVQLVESGGGLVQAGGSRKLSCAASGFPFSSFGMHWVRQAPEKGLEWVASISSRTSKIYYADNLKGRFTISRDNPKNTLFLQMTSLGSEDTAMYYCVRSVFGNSYWFFDVWGAGTTVTVSS VL: DIVLTQSPATLSVTPGDRVSLSCRASQRIYNYLHWYQQKSHESPRLLTKYASQSISGIPSRFSGSGSGTDFILTINSVETEDFGMYFCQQSNSWPLTFGAGTKLELRR | 0.07 | 0.08 | 0.41 |  |  | 
10 | HCV 208B-408 (antibody, V domains shown) VH: EVKLVESGGGLVQPGGSLRLSCASSGFTFTDYYMSWVRQPPGKALEWLGFIRNKAYGYTTEFSASVNGRFTISRDDSQSVPYLQMNTLRAEDSATYYCARVLYYDYGGFAYWGQGTLVTVST VL: DIQMTQSPASLSASVGETVTITCRASGNIHTYLAWYQQKQGKSPQLLVYNANTLADGVPSRFSGSGSGTQFSLKINSLQPDDFGSYYCQHFWSAPWTFGGGTQLEIKR | 0.06 | 0.08 | 0.1 |  |  | 0.2
11 | HCV 208B-327 (antibody, V domains shown) VH: EVQLVESGGGLVKPGGSLKLSCAASGFTFSDSYMYWVRQTPDQRLEWVATISDGGSYTFYPDSVKGRFTISRDNAQNNLYLQMSSLKSEDTAMYYCASPHAGYFGWFAYWGRGTLVTVSA VL: DIVMTQAAFSNPVTPGTSVSISCRSSKSLLHSNGITYLYWYLQKPGQSPQLLIYQMSKIASGVPDRFRSSGSGTDFTLRISRVEAADVGVYYCAQNLELPWTFGGGTKLEIKR | 0.05 | 0.08 | 0.09 |  |  | 
12 | HCV 208B-178 (antibody, V domains shown) VH: DVKLVESGGGLVKLGGSLKLSCAASGFTFSSYYMSWVRQTPEKRLELVAAINSNGGSTYYPDTVKGRFTISRDNAKNTLYLQMSSLKSEDTALYYCARHGGLGRRDWYFDVWGAGTTVTVSS VL: DIVLTQSPASLAVSLGQRATISCRASESVDNYGISFMHWYQQKPGQPPKLLIYRASNLESGIPARFSGSGSRTDFTLTINPVETDDVATYYCQQSNKDPFTFGSGAKLEIKR | 0.07 | 0.07 | 0.08 |  |  | 
13 | HCV 208B-515 (antibody, V domains shown) VH: QVQLQQPGAELVKPGASLKLSCRASGYTFTSYWIHWVKQRPGQGLEWIGEIDPSDSYTNYNQKFKGKATLTVDKSSRAAYMQLSSLTSEDSAVYYCARHYYGVFDSWGQGTKLTVSS VL: QIVFTQYPAIMSASLGERVTMTCTASSSVTSSYLHWFQQKPGSSPKLWIYSTSNPGSGVPARFSGRGSGTSYSLSISSMEAEDAATYYCLQFHRSPWTFGGGTKLEIRR | 0.06 | 0.07 | 0.08 |  |  | 
14 | HCV 208B-911 (antibody, V domains shown) VH: QVHLQQPGAELVRPGVSVKLSCKASGYTFTTYSINWMKQRPGQGLEWIGNIYPSTSHTNYNQKFRDKATMTVDKSSSTAYMQLSSPTSEDSAVYYCTINAYSMDYWGQGTSVTVSS VL: QIVLTQSPEIMSASPGEKVTITCSASSSVSFMYWFQQKPGTSPKLWIYITSNLASGVPTRFSGSGSGTSYSLTISRMEAEDAATYYCQQRSSFPYTFGGGTKLEMKR | 0.1 | 1.17 | 0.17 |  |  | 
15 | HCV 208A-692 (antibody, V domains shown) VH: QGQMQQSGAELAKPGASVKLSCKTSGFTFSSSYISWLKQKPGQSLEWIAWIFAGTGNTNYNQKFTDKAQLTVDTSSSTAYMQLSSLTTEDSAIYYCAISGTGFTYWGQGTLVTVSA VL: EVLMTQSPLSLPVSLGDQASISCRSSQSLEHSNGNTYLEWFLQRPGQPPKLLIYKVSSRFSGVPDRFSGSGSGTDFTLKISRVEAEDLGVYYCFQGSHVPFTFGSGTKLAIKR | 0.06 | 0.06 | 0.09 |  |  | 0.38
16 | HCV 208B-353 (antibody, V domains shown) VH: EVQLVESGGDLVKPGGSLKLSCAASGFTFNHYGMSWVRQPPDKRLEWVATISSGGGYTYYPDSVKGRFTISRDNAKDTLSLQMSSLRSGDTAVYYCASLYGSLFAYWGQGTLVTVSA VL: DIVMTQSQKFMSTTVGDRVRVTCKASQNVGTAVAWYQQKPGQSPKLLIYSASNRYTGVPDRFTGSGSGTDFTLTITNMQSEDLADYFCQQYSTYPLTFGSGAKLEIKR | 0.07 | 0.06 | 0.1 |  |  | 
